Measurements: paper PMC3472557, “Structural Basis for ASPP2 Recognition by the Tumor Suppressor p73” (Journal of Molecular Biology, 2012)

Biological target: T1, ankyrin repeat and SH3 domains of human ASPP2 (residues P891–A1128) (human, UniProt Q13625 891-1128)
T1 construct: ASPP2 (53BP2), human, ankyrin repeat and SH3 domains, residues P891-A1128, UniProt Q13625; cloned into pCOEX-LIC1; The limits are stated for the crystallised construct; also called 53BP2; source: E. coli BL21(DE3) R3 pRARE, purified (nickel-Sepharose, TEV protease, HiTrap Q, Superdex 200); not shown: His6, N-terminal, cleaved
T1 sequence (looked up): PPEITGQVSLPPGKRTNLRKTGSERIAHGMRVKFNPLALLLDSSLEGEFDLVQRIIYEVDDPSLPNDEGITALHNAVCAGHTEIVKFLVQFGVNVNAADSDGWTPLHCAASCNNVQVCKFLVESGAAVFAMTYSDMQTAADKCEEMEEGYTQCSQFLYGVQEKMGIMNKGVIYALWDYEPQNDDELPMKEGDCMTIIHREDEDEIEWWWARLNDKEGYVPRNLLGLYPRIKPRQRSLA
Assay: native gel or EMSA; 20 uM ASPP2 with decreasing concentrations of p73 112-315; 4 °C overnight; 50 mM sodium phosphate, pH 7.2, 50 mM NaCl, 5 mM DTT, 50 mM L-arginine, 50 mM L-glutamate; 10% polyacrylamide gel in Tris-glycine, pH 8.3, Coomassie stain
Conditions: both partners purified

B1: p73 DBD (p73 amino acids 112–315) (domain or fragment, human, UniProt O15350 112-315, looked up)
chain: APVIPSNTDYPGPHHFEVTFQQSSTAKSATWTYSPLLKKLYCQIAKTCPIQIKVSTPPPPGTAIRAMPVYKKAEHVTDVVKRCPNHELGRDFNEGQSAPASHLIRVEGNNLSQYVDDPVTGRQSVVVPYEPPQVGTEFTTILYNFMCNSSCVGGMNRRPILIIITLEMRDGQVLGRRSFEGRICACPGRDRKADEDHYREQQAL
notes: It may be a misprint for 112-311; source: E. coli BL21(DE3) R3 pRARE, purified (said of all proteins)
  binding result: binds
